According to paper PMC4944944, “The Calponin Family Member CHDP-1 Interacts with Rac/CED-10 to Promote Cell Protrusions” (PLoS Genetics, 2016):

Molecular target: T1, Flag-tagged full-length CHDP-1 (C. elegans, UniProt P91027 1-338)
T1 construct: CHDP-1 (C10G11.7), single type III calponin homology domain protein of C. elegans; fragment limits show 338 residues; Cloned into a modified pFLAG-CMV-2 vector; In the self-association co-IP the second copy carried Myc (modified pcDNA3.1/myc-HIS(-) vector) in place of Flag; also called FLAG-CHDP-1; C10G11.7; source: HEK293T, transfected, in lysate
T1 sequence (looked up): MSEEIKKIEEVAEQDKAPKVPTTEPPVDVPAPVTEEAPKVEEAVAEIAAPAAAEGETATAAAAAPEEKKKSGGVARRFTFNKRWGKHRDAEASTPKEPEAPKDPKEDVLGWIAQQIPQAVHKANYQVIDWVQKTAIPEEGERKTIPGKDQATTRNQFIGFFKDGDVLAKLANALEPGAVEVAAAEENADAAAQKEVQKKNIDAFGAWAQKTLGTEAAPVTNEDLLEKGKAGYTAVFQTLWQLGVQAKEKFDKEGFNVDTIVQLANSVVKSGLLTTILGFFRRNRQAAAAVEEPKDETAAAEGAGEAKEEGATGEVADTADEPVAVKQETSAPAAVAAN
Test: co-IP; Flag-CHDP-1 and Myc-CED-10 expressed in HEK293T cells, affinity purified, mixed together, then co-immunoprecipitated with Flag or Myc antibodies
Details: both partners purified

B1: Myc-tagged CED-10 (natural protein)
chain: not shown
notes: CED-10, Rac1 homolog (Rho family small GTPase) of C. elegans; cDNA from Dr. Yuji Kohara; Cloned into a modified pcDNA3.1/myc-HIS(-) vector; also called Rac1/CED-10; worm Rac1 homolog; source: HEK293T, transfected, in lysate
  binding result: binds
